Target: recombinant full-length hemagglutinin H6 (A/Taiwan/2/2013) (Influenza A virus A/Taiwan/2/2013 (H6N1), strain)
Assay: BLI
Settings: both partners purified

B1: 3I14 IgG1 (wild type) (antibody, V domains shown)
VH: QVQLLESGGGVVQPGRSLRLSCAASGFTFSNYGMHWVRQAPGKGLEWVAIISFDGSKKYYANSVKGRSTISRDNSKNTLSLQMNSLGPEDTALYYCAKLPSPYYFDSRFVWVAASAFHFWGQGILVTVSS
VL: NFMLTQPPSASGTPGQRVTISCSGSSSNIGGNTVHWFQQLPGTAPKLLIYTNSLRPSGVPDRFSGSKSGTSASLAISGLQSEDEADYYCAAWDDSLNGQVFGGGTKLTVL
notes: copies: 2 + 2
- Kd: 2.9 nM
- koff: 0.000152 s⁻¹
- kon: 51900 M⁻¹ s⁻¹
